According to patent US6669963B1, “Stable particle in liquid formulations” (Elan Drug Delivery Limited, priority 1997, dated 2003):

Assays:
phage lambda DNA = assay: Storage stability of EcoR1 preparations, residual titre by complete cutting of DNA; type: physicochemical
Description: Restriction enzymes are customarily stored in freezers at −20° C. in buffers containing 50% glycerol to prevent ice formation. Even under these conditions some of them have a limited storage life and need to be replaced at intervals. Several enzymes were dried using the technique of the present invention with similar results. The data with one enzyme, EcoR1, is illustrated. The enzyme solution was diluted 100 fold in SC buffer (Colaco C. A. L. S., Sen S., Thangavelu M., Pinder S. and Roser B. “Extraordinary stability of enzymes dried in trehalose: Simplified molecular biology.” Biotechnol. 10 1007-1011 (1992)). The dried enzyme was produced in the spray dryer as above, sealed in vials with or without oil and its stability was compared with fresh liquid enzyme diluted in cutting buffer at three storage temperatures 4° C., 37° C. and 55° C. To determine residual activity after storage, the enzyme was recovered into the acueous phase as described earlier, diluted with SC buffer in a 2-fold dilution series and used to cut 0.5 μg of phage lambda DNA (Life Technologies Inc). The completeness of cutting at various dilutions was assessed by separating the DNA fragments by agarose gel electrophoresis in which the bands were visualised under UV light by ethidium bromide staining.

[1] = Storage stability of EPO preparations, residual EPO by Quantikine IVD EPO-specific immunoassay; type: physicochemical; details: within one day
Description: Freeze dried EPO was re-hydrated and diluted 100 fold with a buffer of the following composition:
and dried in a spray dryer as above. The powder was weighed into 125 mg aliquots and subjected to secondary drying at a temperature ramping from 40° C. to 80° C. at a rate of 15 degrees per hour under vacuum and then either sealed in a serum vial or re-suspended in 0.5 ml of mineral oil BP and sealed. They were then stored at 37° C. or 55° C. for up to 15 days. At the end of the storage period, residual EPO was extracted into phosphate buffered saline containing 0.01% BSA as above and the amount remaining in the extract was measured using a Quantikine IVD EPO-specific immunoassay (RD Systems Inc).

Question: Which activity on storage (phage lambda DNA; 4° C., over 28 days) does the source give for “fresh enzyme: Restriction Endonuclease EcoR1, fresh liquid enzyme diluted in cutting buffer” here?
Answer: stable

Question: What about the activity on storage (phage lambda DNA; 37° C., by 28 days) of the same substance?
Answer: lost essentially all activity

Question: What about the “time to completely inactive” value (phage lambda DNA; 55° C.) of the same substance?
Answer: ≤ 7 days

Question: Which results are given for “fresh EPO: Recombinant Human Erythropoietin, not dried in trehalose”?
Answer: loss of activity ([1]; 37° C.): 88%; loss of activity ([1]; 55° C.): > 95%
